{"source": "paper PMC8199477", "target": "urate oxidase from Deinococcus radiodurans (DrUox) (Deinococcus radiodurans R1)", "test": "SEC; Superdex 200 (10/300) GL, 20 mM Tris-HCl pH 8.0, 100 mM NaCl, 0.5 mL/min; size by interpolation against protein markers"}
{"substance": "urate oxidase from Deinococcus radiodurans (DrUox) (enzyme)", "values": [{"measurement": "stoichiometry N", "value": 4}]}
